{"source": "paper PMC8964686", "target": "Escherichia coli RNA polymerase holoenzyme with σ^70, in the initially stalled complex (E. coli) (UniProt P00579)", "sequence (P00579 whole entry, looked up, one chain of several)": "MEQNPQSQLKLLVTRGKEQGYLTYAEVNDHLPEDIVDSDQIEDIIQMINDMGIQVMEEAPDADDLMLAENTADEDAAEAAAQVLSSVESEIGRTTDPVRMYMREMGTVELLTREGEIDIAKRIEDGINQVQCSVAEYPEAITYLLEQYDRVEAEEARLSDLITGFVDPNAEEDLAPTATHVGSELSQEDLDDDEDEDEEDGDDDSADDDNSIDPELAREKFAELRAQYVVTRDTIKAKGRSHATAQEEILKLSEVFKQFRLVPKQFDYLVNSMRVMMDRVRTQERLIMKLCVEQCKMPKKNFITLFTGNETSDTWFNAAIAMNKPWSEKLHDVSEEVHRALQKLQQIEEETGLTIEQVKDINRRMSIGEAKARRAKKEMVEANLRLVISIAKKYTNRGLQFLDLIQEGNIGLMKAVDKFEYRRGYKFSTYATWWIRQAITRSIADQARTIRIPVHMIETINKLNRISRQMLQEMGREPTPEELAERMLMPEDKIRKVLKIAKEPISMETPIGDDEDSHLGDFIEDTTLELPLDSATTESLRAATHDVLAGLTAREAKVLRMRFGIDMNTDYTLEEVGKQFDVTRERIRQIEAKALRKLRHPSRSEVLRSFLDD"}
{"substance": "Rho (ρ) transcription termination factor, wild type (from UniProt P0AG30 1-419) (enzyme)", "values": [{"measurement": "time constant of the decrease of stand-by TE as the interval between ISC washing and NTP injection is prolonged", "value": 693, "unit": "s"}]}
